Values belong to the substance of their own block, whether it stands above or below them.
What was measured:
[1] = molecular target: Dylight488-labeled GluA2 amino terminal domain; assay: AUC; FDS-SV, dilution series of Dylight488-GluA2 ATD, two different runs, global best-fit single component, single class of sites model (Figure 5A); dimer to monomers
[2] = molecular target: Dylight488-labeled GluA2 amino terminal domain; assay: AUC; fluorescence-detected sedimentation velocity (FDS-SV), dilution series of labeled protein (Figure 3); 50,000 rpm, 20°C; 20 mM Na phosphate pH 7.5, 150 mM NaCl, 1 mM EDTA, 0.1 mg/mL BSA carrier; sw isotherm fitted with a monomer-dimer model; dimer to monomers
[3] = molecular target: Alexa Fluor 568-labeled GluA2 amino terminal domain; assay: FRET or BRET; kinetic FRET in a spectrofluorometer, 20°C, excitation 495 nm, emission 603 nm; 50 nM donor-labeled and 50 nM AF568-labeled GluA2 ATD pre-equilibrated (30 min DL488, 60 min FAM), then 1 µM unlabeled GluA2 ATD added; decay fitted with exponential functions
[4] = molecular target: FAM (5,6-carboxyfluorescein)-labeled GluA2 amino terminal domain; assay: AUC; FDS-SV, dilution series of FAM-GluA2 ATD at labeling ratio 1.05 (Figure 4C/D); 20°C, pH 7.5, 0.1 mg/mL BSA; monomer-dimer model; dimer to monomers
[5] = molecular target: FAM (5,6-carboxyfluorescein)-labeled GluA2 amino terminal domain; assay: AUC; fluorescence-detected sedimentation velocity (FDS-SV), dilution series of labeled protein (Figure 3); 50,000 rpm, 20°C; 20 mM Na phosphate pH 7.5, 150 mM NaCl, 1 mM EDTA, 0.1 mg/mL BSA carrier; sw isotherm fitted with a monomer-dimer model; dimer to monomers
[6] = molecular target: FAM (5,6-carboxyfluorescein)-labeled GluA2 amino terminal domain; assay: AUC; FDS-SV, dilution series of FAM-GluA2 ATD at labeling ratio 1.32 extended to lower concentrations (Figure 5); all fits with s-values constrained to those of Dylight488-GluA2 ATD: single-component fit, and three-component fit with populations of different affinity; dimer to monomers
[7] = molecular target: FAM (5,6-carboxyfluorescein)-labeled GluA2 amino terminal domain; assay: AUC; FDS-SV, dilution series of FAM-GluA2 ATD at labeling ratio 2.26 (Figure 4E/F); 20°C, pH 7.5, 0.1 mg/mL BSA; monomer-dimer model; dimer to monomers
[8] = molecular target: FAM (5,6-carboxyfluorescein)-labeled GluA2 amino terminal domain; assay: AUC; FDS-SV, dilution series of FAM-GluA2 ATD at labeling ratio 0.68 (Figure 4A/B), down to very low concentrations; 20°C, pH 7.5, 0.1 mg/mL BSA; monomer-dimer model; dimer to monomers
[9] = molecular target: FAM (5,6-carboxyfluorescein)-labeled GluA2 amino terminal domain; assay: AUC; FDS-SV, dilution series of FAM-GluA2 ATD at labeling ratio 1.32, single-component fit excluding the two lowest concentrations and freely adjusting the s-values (Figure 5A, thin blue line); dimer to monomers
[10] = molecular target: GluA2 ATD ATD (Rattus norvegicus) (UniProt P19491); assay: sedimentation velocity AUC (far-UV absorbance); conditions: cited from earlier work
[11] = molecular target: FAM (5,6-carboxyfluorescein)-labeled GluA2 amino terminal domain; assay: AUC; FDS-SV, titration series: constant low concentration of labeled protein (1 nM for FAM-GluA2 ATD) with unlabeled GluA2 ATD at a range of concentrations (Figure S1); 20°C, pH 7.5, 0.1 mg/mL BSA; sw isotherm, monomer-dimer model; dimer to monomers
[12] = molecular target: Dylight488-labeled GluA2 amino terminal domain; assay: as above
[13] = molecular target: EGFP-GluA2 ATD fusion protein; assay: as above
Chain of EGFP-GluA2 ATD fusion protein (P23819 25-404): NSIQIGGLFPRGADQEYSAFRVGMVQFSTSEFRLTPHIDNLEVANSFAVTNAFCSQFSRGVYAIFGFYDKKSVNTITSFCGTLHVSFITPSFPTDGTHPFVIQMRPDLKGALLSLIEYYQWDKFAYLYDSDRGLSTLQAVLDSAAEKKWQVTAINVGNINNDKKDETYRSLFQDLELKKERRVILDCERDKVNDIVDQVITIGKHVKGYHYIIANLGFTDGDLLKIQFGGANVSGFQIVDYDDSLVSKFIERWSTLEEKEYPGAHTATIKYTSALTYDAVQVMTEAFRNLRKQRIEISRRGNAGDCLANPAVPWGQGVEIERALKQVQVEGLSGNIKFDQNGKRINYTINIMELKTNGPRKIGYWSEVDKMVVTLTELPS

Chain of GluA2 ATD ATD (P19491 22-400): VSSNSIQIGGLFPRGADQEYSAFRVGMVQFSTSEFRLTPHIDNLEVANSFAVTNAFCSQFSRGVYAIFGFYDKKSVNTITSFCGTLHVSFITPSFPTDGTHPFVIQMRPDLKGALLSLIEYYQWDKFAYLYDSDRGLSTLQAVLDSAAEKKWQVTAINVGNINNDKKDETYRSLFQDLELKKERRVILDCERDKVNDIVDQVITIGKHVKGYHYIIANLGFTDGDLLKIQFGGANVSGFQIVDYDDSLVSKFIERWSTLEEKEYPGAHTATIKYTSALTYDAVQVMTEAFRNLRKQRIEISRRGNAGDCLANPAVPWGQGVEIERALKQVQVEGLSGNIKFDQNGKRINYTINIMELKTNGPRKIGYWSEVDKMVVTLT

Kd [1]: 19.4 nM
Kd [2]: 20.5 nM
stoichiometry N [2]: 2
half life of the donor/acceptor heterodimer (single-exponential decay) [3]: 2.72 min
time constant of the decay (single exponential fit, trace shown) [3]: 169 s
Substance: Dylight488-labeled GluA2 amino terminal domain (domain or fragment)

Kd [4]: 2.6 nM
Kd [5]: 2.3 nM
stoichiometry N [5]: 2
KD of the high-affinity population (three-component fit) [6]: 1.8 nM
KD of the low-affinity population (three-component fit) [6]: 24000 nM
Kd [6]: 6.3 nM
Kd [7]: 4.7 nM
life-time of the donor/acceptor heterodimer, fast component [3]: 95 s
life-time of the donor/acceptor heterodimer, slow component [3]: 723 s
time constant of the decay, fast component (double exponential fit, trace shown) [3]: 98 s
time constant of the decay, slow component (double exponential fit, trace shown) [3]: 640 s
Kd [8]: 3.1 nM
Kd [9]: 4.6 nM
Substance: FAM (5,6-carboxyfluorescein)-labeled GluA2 amino terminal domain (domain or fragment)

Substance: GluA2 ATD ATD (from UniProt P19491)
Kd [10]: 9.4 nM

Kd [11]: 9 nM
Kd [12]: 16.5 nM
Kd [13]: 22 nM
Substance: GluA2 amino terminal domain (GluA2 ATD), unlabeled (domain or fragment)
